Experimental data taken from the supplement of paper PMC12764529.
± gives the half width of the 95% confidence interval.

Assays:
[1] = folding stability dG unfold from chymotrypsin proteolysis; higher = more stable
Method in brief: (§1)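 Only designs with AlphaFold2 dimer inter-PAE above 15 were retained; each was a mini-protein under 80 residues with no cysteine, in a PA-tagged cDNA display construct. After digestion with trypsin and chymotrypsin and sequencing, K50 was inferred by Bayesian fitting of counts, and unfolding free energy was derived per protease or combined against a sequence-predicted unfolded-state K50 and a shared folded-state K50.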

[2] = folding stability dG unfold (combined trypsin and chymotrypsin); higher = more stable
Method in brief: as §1

[3] = folding stability dG unfold from trypsin proteolysis; higher = more stable
Method in brief: as §1

Sequence | folding stability dG unfold [1] [kcal/mol] | folding stability dG unfold [2] [kcal/mol] | folding stability dG unfold [3] [kcal/mol]
SAGGSAGGSLRLRVTFTVTVTFLDGNRLRPAKVEITVEIELEPIPPELLRPRPLPGDKLEYDLSAGGSAGGS [r12_1031_TrMRF] | 3.29 ± 0.045 | 3.16 ± 0.25 | 2.72 ± 0.17
SAGGSAGGSMEVDIEVETLETEVSFLPGDLIKVKKLVKITLPNGEVLEEETEEIIPKSEIGKLSAGGSAGGS [r12_1028_JUSTAS] | -0.00695 ± 0.12 | 0.419 ± 0.24 | 0.808 ± 0.078
SAGGSAGGSMEVNLKVTVTYPDGTVVELEIPKVSTEDGKSVEDVAKEIEALPDVKEVEVEIVESAGGSAGGS [r12_199_JUSTAS] | 2.03 ± 0.1 | 1.55 ± 0.27 | 0.847 ± 0.13
SAGGSAGGSMEVTYDEETGELTVRIEVDGKTLTLKFKSIEDLKAALEKLGIDVDDVKIVEIEPSAGGSAGGS [r12_834_TrROS_Hall] | 4.75 ± 0.089 | 4.67 ± 0.14 | 4.18 ± 0.3
SAGGSAGGSMIDDIVEKLKIPPGTRIVFNDGEVKYFDNREDIKEWAKNGYPAEKLKNIVAFPESAGGSAGGS [r12_430_TrMRF] | 0.491 ± 0.1 | 0.251 ± 0.12 | -0.276 ± 0.15
SAGGSAGGSMIEVVKFPNGITLEYFPETNTYRAFNPSTNTTTTFPPGVSFEEAVEAVKKGNLVSAGGSAGGS [r12_832_JUSTAS] | 3.82 ± 0.017 | 3.88 ± 0.041 | 4.1 ± 0.091
SAGGSAGGSMITLTLPDEEALRAYVEQLVADAGTEITEVTVTPLAPDTVEAEVSIDPTDPVGLSAGGSAGGS [r12_647_JUSTAS] | 0.426 ± 0.065 | 0.858 ± 0.098 | 1.09 ± 0.022
SAGGSAGGSMKITINKWDPDNGNIMVTIQMPGQPVEIMIPWNNVDKLLEKLPFPGMKIDEIYPSAGGSAGGS [r12_23_TrROS] | 0.718 ± 0.23 | 1.14 ± 0.23 | 1.11 ± 0.1
SAGGSAGGSMKITVEKDENGNYRVTVTLTVNGKEIKLTVTVPKNTTPEEVKKKAEELAKELLKSAGGSAGGS [r12_69_TrROS_Hall] | 5.13 ± 0.44 | > 6 | 4.39 ± 0.55
SAGGSAGGSMKKIKIEVYNKDGSKTELPLSEILKLYDFDAEEIKKFLEKLFPKDVKFKIEIEGSAGGSAGGS [r12_399_TrMRF] | 2.53 ± 0.05 | 2.31 ± 0.17 | 1.33 ± 0.061
SAGGSAGGSMKLPPELKGKKIRIRVRNKNGETVEAEATVLEDGTIEIKIEGLSEEEITEIEIESAGGSAGGS [r12_477_TrROS_Hall] | 2.21 ± 0.035 | 2.3 ± 0.076 | 2.36 ± 0.038
SAGGSAGGSMKLVTVKMKRPNGPVELTPVLPVDPSETLEEVKERVLELYPGAEITEITVTPDESAGGSAGGS [r12_738_JUSTAS] | 0.708 ± 0.15 | 0.457 ± 0.15 | -0.358 ± 0.11
SAGGSAGGSMKTITVPPEVLAALPLEEIVERNTSPDEEVEVEFVEEPGPVTVIIDTKKKPEHHSAGGSAGGS [r12_716_JUSTAS] | 0.551 ± 0.015 | 0.252 ± 0.092 | -0.95 ± 0.26
SAGGSAGGSMKVEIKFPDGSVKTIPLSPEEPDVPPEALVKELGADNVTITYYTPDGVPINLGISAGGSAGGS [r12_411_JUSTAS] | 0.916 ± 0.03 | 0.706 ± 0.053 | 0.297 ± 0.058
SAGGSAGGSMKVVKVELTLTGPGGEVTYLEEEIEVPEDELGEIEVSLPDENLSYEVTVEVIEESAGGSAGGS [r12_354_JUSTAS] | 1.41 ± 0.071 | 1.12 ± 0.18 | 0.444 ± 0.12
SAGGSAGGSMLEEKIKQVPKSEKATITIKVKNENGKWKVVTVEVTYIEGKNEYEVKITITPEPGSAGGSAGG [r6_545_JUSTAS] | 3.04 ± 0.18 | 2.29 ± 0.3 | 1.73 ± 0.2
SAGGSAGGSMLVLHLPNGKEIPIPPGEFSEDTGVEDIAARIPPEVRRLRIYNEDGTEVEVPIDSAGGSAGGS [r20_161_TrMRF] | 0.479 ± 0.39 | 0.32 ± 0.18 | 0.00521 ± 0.4
SAGGSAGGSMPFKIDVEVERHPEDNMYQVEITFPGNREIPIMVDDPSDPEKAKNIAKEFAKQLSAGGSAGGS [r12_1012_TrROS] | -0.648 ± 0.7 | -0.0883 ± 0.13 | 0.13 ± 0.082

Sequence | folding stability dG unfold [1] [kcal/mol] | folding stability dG unfold [2] [kcal/mol] | folding stability dG unfold [3] [kcal/mol]
SAGGSAGGSMPTLRVKIEVTNPDGEKLELTITVPRDMTLEELKALAEELAKAGYEVRIVEVEPSAGGSAGGS [r12_804_TrROS_Hall] | 2.83 ± 0.069 | 3.19 ± 0.17 | 3.61 ± 0.15
SAGGSAGGSMPVKRELIITVTEPSSGTTRTLVVEVETEEEAEAVVAAVAAVPDRTVTEVRRLASAGGSAGGS [r12_152_JUSTAS] | 1.26 ± 0.022 | 0.926 ± 0.057 | 0.109 ± 0.083
SAGGSAGGSMPVKVITTISRETVPLPNGDPGARYTVTTTVTTDSTVVSTTTTTFSSEAELAAASAGGSAGGS [r12_461_JUSTAS] | 0.854 ± 0.12 | 0.894 ± 0.084 | 1.08 ± 0.035
SAGGSAGGSMRIKTIKVIPQDDGMYSINITFPGVEREIPIPPQMPPDQITEIEIPIYFDGEPPSAGGSAGGS [r12_673_TrROS] | 0.436 ± 0.12 | 0.212 ± 0.097 | -0.257 ± 0.16
SAGGSAGGSMRLTVEVSSLEEAEKLAEEIEERFDVEIVRVEVEETEEGGLRVTFDVKLHPDLGSAGGSAGGS [r12_577_TrMRF] | 2.94 ± 0.098 | 2.82 ± 0.18 | 2.96 ± 0.16
SAGGSAGGSMRTLKARITLRGPDGVEYRFEFEIPAGSAEDVVAFLKNLPVPPGWEVELEVLDESAGGSAGGS [r20_162_TrMRF] | 5.54 ± 0.088 | 5.44 ± 0.1 | 4.42 ± 0.16
SAGGSAGGSMRVEITEVKEVRGEGGEPRYLVTVRITVPDGKEETFVYEFKTPEELEKLEVELPSAGGSAGGS [r20_130_JUSTAS] | 3.37 ± 0.038 | 3.13 ± 0.061 | 2.55 ± 0.062
SAGGSAGGSMSKPVKITTTRDPNSNVITIQVESEEDVIEFAKKKGINIKIEPTSENTYKLTLESAGGSAGGS [r12_810_JUSTAS] | -0.0494 ± 0.36 | 0.113 ± 0.21 | 0.0305 ± 0.079
SAGGSAGGSMSTTETTVTEVTITVRSDGKVSREVKVTVTTTTTITPAGGTATVTTTTTRTPLESAGGSAGGS [r12_409_JUSTAS] | 1.3 ± 0.018 | 1.19 ± 0.051 | 1.01 ± 0.053
SAGGSAGGSMSTVSTVTHPDGTPLTVTTTPLPDGTVLATYSAPDGTVVATFDVSTGTTVVVPLSAGGSAGGS [r20_159_JUSTAS] | 1.5 ± 0.079 | 1.44 ± 0.074 | 1.39 ± 0.067
SAGGSAGGSMTAEEIAEKFPGLPPEQIKNIPIERHPDGYMTVNIEHRGPNGNKQEQQVEIPVDSAGGSAGGS [r12_1050_TrROS] | 0.505 ± 0.037 | 0.483 ± 0.16 | 0.509 ± 0.04
SAGGSAGGSMTETVEKAPDGTPVLVLKETEESTGDGGKTILRPSTVLLPPGTVLSTEDEVILESAGGSAGGS [r12_581_JUSTAS] | 1.83 ± 0.071 | 1.52 ± 0.072 | 0.944 ± 0.069
SAGGSAGGSMTFRVEVFNKKTGKVETIEVEGSLDELKALAPPGALVKIEVDGKTITIPAEELKSAGGSAGGS [r20_36_TrROS_Hall] | 1.75 ± 0.059 | 1.74 ± 0.057 | 1.67 ± 0.021
SAGGSAGGSMTIEEIKKLAEELGIEKVEIEKVKDGYYKIKIYNKKTGKKIEIIIKVNKDGKIVSAGGSAGGS [r12_170_TrROS_Hall] | 3.9 ± 0.091 | 3.61 ± 0.26 | 2.27 ± 0.17
SAGGSAGGSMTIPESEFKQMSEEELKKLLLENPEPVTVVTSDPEILERIKKIFEKLGIKITLESAGGSAGGS [r12_97_JUSTAS] | 2.63 ± 0.12 | 2.59 ± 0.14 | 2.4 ± 0.11
SAGGSAGGSMTITVTKVDFPPGLYEGLTIEELRKLLGDENLPIKETPVTVTVTPEKLAALLLSSAGGSAGGS [r12_178_JUSTAS] | 0.778 ± 0.08 | 1.36 ± 0.096 | 1.69 ± 0.036
SAGGSAGGSMTITYDPVSNTYTVNLSLEGGTKTYTVPSLEALKATLKAEGLPWGPPPITTVSASAGGSAGGS [r12_834_JUSTAS] | 5.05 ± 0.063 | 4.96 ± 0.079 | 3.43 ± 0.08
SAGGSAGGSMTIVIPKKTLEKMKPETIKKLLELAKELNTTITMNENAITIPVGKGTEEALKALSAGGSAGGS [r12_945_TrMRF] | 1.05 ± 0.025 | 1.28 ± 0.073 | 1.5 ± 0.07
